# Ends that are not written are not given here.
# B1: PLEKHM1‐LIR V638I peptide (biotinylated 9-mer) (peptide, UniProt Q9Y4G2 632-640, looked up)
# peptide: EDEWVNIQY
# modifications: also: biotinylated
# notes: PLEKHM1 LIR; source: bought: JPT (biotinylated peptide)
# B2: PLEKHM1‐LIR N637W peptide (biotinylated 9-mer) (peptide, UniProt Q9Y4G2 632-640, looked up)
# peptide: EDEWVWVQY
# modifications: also: biotinylated
# notes: as for B1
# B3: PLEKHM1‐LIR W635F peptide (biotinylated 9-mer) (peptide, UniProt Q9Y4G2 632-640, looked up)
# peptide: EDEFVNVQY
# modifications: also: biotinylated
# notes: as for B1
# B4: Biotinylated PLEKHM1-LIR V636L peptide (peptide)
# peptide: EDEWLNVQY
# modifications: also: biotinylated, position not given here
# notes: also called V636X with X = L; L in position X1; source: synthetic peptide, bought: JPT, Germany
# B5: PLEKHM1‐LIR N637Y peptide (biotinylated 9-mer) (peptide, UniProt Q9Y4G2 632-640, looked up)
# peptide: EDEWVYVQY
# modifications: also: biotinylated
# notes: as for B1
# B6: PLEKHM1‐LIR N637V peptide (biotinylated 9-mer) (peptide, UniProt Q9Y4G2 632-640, looked up)
# peptide: EDEWVVVQY
# modifications: also: biotinylated
# notes: as for B1
# B7: PLEKHM1‐LIR N637L peptide (biotinylated 9-mer) (peptide, UniProt Q9Y4G2 632-640, looked up)
# peptide: EDEWVLVQY
# modifications: also: biotinylated
# notes: as for B1
# B8: PLEKHM1‐LIR W635A peptide (ITC) (peptide)
# chain: PQQEDEAVNVQYPD
# modifications: limits taken from the WT ITC peptide (P629-D642); N-terminal GAMG cloning remnant, printed only for WT, left out
# B9: PLEKHM1‐LIR W635Y peptide (biotinylated 9-mer) (peptide, UniProt Q9Y4G2 632-640, looked up)
# peptide: EDEYVNVQY
# modifications: also: biotinylated
# notes: as for B1
# B10: PLEKHM1‐LIR peptide (GAMG‐P^629QQEDEWVNVQYPD^642) (peptide)
# peptide: GAMGPQQEDEWVNVQYPD
# notes: cloning artefact left after TEV cleavage; PLEKHM1 LIR, residues 629-642; 13C,15N- or 15N-labelled for some NMR experiments; also called PLEKHM1‐LIR WT; source: E. coli NEB T7, as Ub63 fusion, TEV-cleaved, purified (Ni-NTA, reverse Ni-NTA, gel filtration)
# B11: PLEKHM1‐LIR V636G peptide (ITC) (peptide)
# chain: PQQEDEWGNVQYPD
# modifications: limits taken from the WT ITC peptide (P629-D642); N-terminal GAMG cloning remnant, printed only for WT, left out
# B12: PLEKHM1‐LIR V638L peptide (biotinylated 9-mer) (peptide, UniProt Q9Y4G2 632-640, looked up)
# peptide: EDEWVNLQY
# modifications: also: biotinylated
# notes: as for B1
# B13: PLEKHM1-LIR peptide (GAMG-P629QQEDEWVNVQYPD642) (peptide)
# peptide: GAMGPQQEDEWVNVQYPD
# notes: cloning artefact left after TEV cleavage; PLEKHM1, LIR region, residues 629-642; Used non-labelled in ITC and in the LC3C co-crystal, 15N-labelled in the NMR titrations with non-labelled proteins; The Appendix (D1:p2) calls the ITC peptide 'synthetic', the methods describe the recombinant preparation; also called PLEKHM1-LIR WT; PLEKHM1 629-642; source: E. coli NEB T7, expressed as …
# B14: Biotinylated PLEKHM1-LIR V636I peptide (peptide, UniProt Q9Y4G2 632-640, looked up)
# peptide: EDEWINVQY
# modifications: also: biotinylated, position not given here
# notes: also called V636X with X = I; I in position X1; source: synthetic peptide, bought: JPT, Germany
# Tests used:
# Settings in all cases: both partners purified
# 6xHis‐tagged GABARAP‐L1 = target: T1, 6xHis‐tagged GABARAP‐L1 (human, UniProt Q9H0R8 1-117); assay: ELISA; called peptide array: biotinylated peptides immobilised on streptavidin-coated 96-well plates; 1 μM His6-mATG8 in PBS, 0.1% Tween-20, 1% BSA, 1 h, 8°C; anti-His-HRP, TMB, absorbance at 450 nm
# T1 construct: GABARAP-L1, human; also called His6‐GABARAP‐L1; source: E. coli, isolated
# 6xHis‐tagged GABARAP‐L2 = target: T2, 6xHis‐tagged GABARAP‐L2 (human, UniProt P60520 1-117); assay: as above
# T2 construct: GABARAP-L2/GATE-16, human; also called His6‐GABARAP‐L2; GATE‐16; source: E. coli, isolated
# 6xHis‐tagged LC3A = target: T3, 6xHis‐tagged LC3A (human, UniProt Q9H492 1-121); assay: as above
# T3 construct: LC3A (MAP1LC3A), human; also called His6‐LC3A; MAP1LC3A; source: E. coli, isolated
# 6xHis‐tagged LC3B = 6xHis‐tagged LC3B (human, UniProt Q9GZQ8 1-120); assay: as above
# 6xHis‐tagged GABARAP = target: T4, 6xHis‐tagged GABARAP (human, UniProt O95166 1-117); assay: as above
# T4 construct: GABARAP, human; also called His6‐GABARAP; source: E. coli, isolated
# 6xHis‐tagged LC3C = target: T5, 6xHis‐tagged LC3C (human, UniProt Q9BXW4 1-126); assay: as above
# T5 construct: LC3C, human; also called His6‐LC3C; source: E. coli, isolated
# 6xHis-tagged GABARAP-L1 = target: T6, 6xHis-tagged GABARAP-L1 (human, UniProt Q9H0R8 1-117); assay: peptide or protein array; biotinylated peptides immobilised on streptavidin-coated 96-well plates, 1 uM His6-tagged mATG8 in PBS, 0.1% Tween-20, 1% BSA, 1 h at 8 C, detected with anti-His-HRP and TMB at 450 nm; expressed relative to the WT LIR peptide
# T6 construct: GABARAP-L1, human; also called HIS6-GABARAP-L1; source: isolated from E. coli
# [1] = target: T7, GABARAP (for ITC and NMR) (human, UniProt O95166 1-117); assay: ITC; peptide 0.4 mM titrated into 0.020 mM LC3/GABARAP protein in 26 steps, 25°C; 50 mM Na2HPO4, 100 mM NaCl, pH 7.0; one-site model
# T7 construct: GABARAP, human; source: E. coli NEB T7 Express, purified
# LC3A (for ITC and NMR) = target: T8, LC3A (for ITC and NMR) (human, UniProt Q9H492 1-121); assay: as above
# T8 construct: LC3A, human; 15N-labelled for NMR; also called MAP1LC3A; source: E. coli NEB T7 Express, purified
# [2] = target: T9, GABARAP‐L2 (for ITC and NMR) (human, UniProt P60520 1-117); assay: as above
# T9 construct: GABARAP-L2/GATE-16, human; 15N-labelled for NMR; also called GATE‐16; source: E. coli NEB T7 Express, purified
# [3] = target: T10, GABARAP‐L1 (for ITC and NMR) (human, UniProt Q9H0R8 1-117); assay: as above
# T10 construct: GABARAP-L1, human; 15N-labelled for NMR; source: E. coli NEB T7 Express, purified
# LC3B (for ITC and NMR) = LC3B (for ITC and NMR) (human, UniProt Q9GZQ8 1-120); assay: as above
# LC3C (for ITC) = target: T11, LC3C (for ITC) (human, UniProt Q9BXW4 1-126); assay: as above
# T11 construct: LC3C, human; source: E. coli NEB T7 Express, purified
# LC3B K30R = LC3B K30R (human, UniProt Q9GZQ8 1-120, K30R); assay: ITC; peptide at 0.4 mM titrated into 0.020 mM LC3B or GABARAP protein in 26 steps, 25 C, VP-ITC, one-site model; 50 mM Na2HPO4, 100 mM NaCl, pH 7.0
# GABARAP R28K = target: T12, GABARAP R28K (human, UniProt O95166 1-117, R28K); assay: as above
# T12 construct: GABARAP, human, with R28K; also called GABARAP R28K mutant
# 6xHis-tagged GABARAP = target: T13, 6xHis-tagged GABARAP (human, UniProt O95166 1-117); assay: peptide or protein array; biotinylated peptides immobilised on streptavidin-coated 96-well plates, 1 uM His6-tagged mATG8 in PBS, 0.1% Tween-20, 1% BSA, 1 h at 8 C, detected with anti-His-HRP and TMB at 450 nm; expressed relative to the WT LIR peptide
# T13 construct: GABARAP, human; also called HIS6-GABARAP; source: isolated from E. coli
# T13 sequence (O95166 whole entry): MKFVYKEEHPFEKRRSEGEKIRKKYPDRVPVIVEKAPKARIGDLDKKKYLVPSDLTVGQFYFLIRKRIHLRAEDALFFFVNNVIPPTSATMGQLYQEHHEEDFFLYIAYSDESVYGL
# T7 sequence (O95166 whole entry): as above
# T4 sequence (O95166 whole entry): as above
# T5 sequence (Q9BXW4 1-126): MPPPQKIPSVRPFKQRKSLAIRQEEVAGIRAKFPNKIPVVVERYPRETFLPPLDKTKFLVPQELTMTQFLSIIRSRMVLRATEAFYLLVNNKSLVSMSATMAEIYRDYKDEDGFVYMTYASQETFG
# T11 sequence (Q9BXW4 1-126): as above
# T1 sequence (Q9H0R8 whole entry, looked up): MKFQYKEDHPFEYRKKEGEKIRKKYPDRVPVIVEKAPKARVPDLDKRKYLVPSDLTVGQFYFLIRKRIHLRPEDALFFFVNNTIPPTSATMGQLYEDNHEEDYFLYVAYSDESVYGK
# T10 sequence (Q9H0R8 whole entry): as the sequence (Q9H0R8 whole entry, looked up) above
# T12 sequence (O95166 whole entry R28K): as the sequence (O95166 whole entry) above, with R28K counted along it
# T2 sequence (P60520 whole entry): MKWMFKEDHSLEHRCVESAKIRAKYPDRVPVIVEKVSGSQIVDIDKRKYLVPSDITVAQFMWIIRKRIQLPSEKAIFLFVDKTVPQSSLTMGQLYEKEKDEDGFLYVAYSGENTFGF
# T9 sequence (P60520 whole entry): as above
# T6 sequence (Q9H0R8 whole entry, looked up): as the sequence (Q9H0R8 whole entry, looked up) above
binder,measurement,setting,value
B1,binding result,6xHis‐tagged GABARAP‐L1,binds
same,binding result,6xHis‐tagged GABARAP‐L2,binds
same,binding result,6xHis‐tagged LC3A,binds
same,binding result,6xHis‐tagged LC3B,binds
same,binding result,6xHis‐tagged GABARAP,binds
same,binding result,6xHis‐tagged LC3C,binds
B2,binding result,6xHis‐tagged GABARAP‐L1,binds
same,binding result,6xHis‐tagged GABARAP‐L2,binds
same,binding result,6xHis‐tagged LC3A,binds
same,binding result,6xHis‐tagged LC3B,binds
same,binding result,6xHis‐tagged GABARAP,binds
same,binding result,6xHis‐tagged LC3C,binds
B3,binding result,6xHis‐tagged GABARAP‐L1,binds
same,binding result,6xHis‐tagged GABARAP‐L2,binds
same,binding result,6xHis‐tagged LC3A,binds
same,binding result,6xHis‐tagged LC3B,binds
same,binding result,6xHis‐tagged GABARAP,binds
same,binding result,6xHis‐tagged LC3C,binds
B4,binding result,6xHis-tagged GABARAP-L1,binds
B5,binding result,6xHis‐tagged GABARAP‐L1,binds
same,binding result,6xHis‐tagged GABARAP‐L2,binds
same,binding result,6xHis‐tagged LC3A,binds
same,binding result,6xHis‐tagged LC3B,binds
same,binding result,6xHis‐tagged GABARAP,binds
same,binding result,6xHis‐tagged LC3C,binds
B6,binding result,6xHis‐tagged GABARAP‐L1,binds
same,binding result,6xHis‐tagged GABARAP‐L2,binds
same,binding result,6xHis‐tagged LC3A,binds
same,binding result,6xHis‐tagged LC3B,binds
same,binding result,6xHis‐tagged GABARAP,binds
same,binding result,6xHis‐tagged LC3C,binds
B7,binding result,6xHis‐tagged GABARAP‐L1,binds
same,binding result,6xHis‐tagged GABARAP‐L2,binds
same,binding result,6xHis‐tagged LC3A,binds
same,binding result,6xHis‐tagged LC3B,binds
same,binding result,6xHis‐tagged GABARAP,binds
same,binding result,6xHis‐tagged LC3C,binds
B8,Ka,[1],10000 M⁻¹
same,Kd,[1],> 100 µM
same,dH,[1],-4.6 ± 0.418 kJ/mol
B9,binding result,6xHis‐tagged GABARAP‐L1,binds
same,binding result,6xHis‐tagged GABARAP‐L2,binds
same,binding result,6xHis‐tagged LC3A,binds
same,binding result,6xHis‐tagged LC3B,binds
same,binding result,6xHis‐tagged GABARAP,binds
same,binding result,6xHis‐tagged LC3C,binds
B10,Ka,LC3A (for ITC and NMR),240000 M⁻¹
same,Kd,LC3A (for ITC and NMR),4.22 µM
same,dH,LC3A (for ITC and NMR),-29.3 ± 0.837 kJ/mol
same,stoichiometry N,LC3A (for ITC and NMR),0.98 ± 0.02
same,Ka,[2],1.07e+06 M⁻¹
same,Kd,[2],0.93 µM
same,dH,[2],-25.5 ± 0.418 kJ/mol
same,stoichiometry N,[2],1.05 ± 0.01
same,Ka,[1],1.8e+06 M⁻¹
same,Kd,[1],0.55 µM
same,dH,[1],-44.35 ± 0.418 kJ/mol
same,stoichiometry N,[1],1 ± 0.01
same,Ka,[3],1.3e+06 M⁻¹
same,Kd,[3],0.77 µM
same,dH,[3],-32.6 ± 0.418 kJ/mol
same,stoichiometry N,[3],1 ± 0.01
same,Ka,LC3B (for ITC and NMR),160000 M⁻¹
same,Kd,LC3B (for ITC and NMR),6.33 µM
same,dH,LC3B (for ITC and NMR),-24.3 ± 0.837 kJ/mol
same,stoichiometry N,LC3B (for ITC and NMR),1.06 ± 0.01
same,Ka,LC3C (for ITC),290000 M⁻¹
same,Kd,LC3C (for ITC),3.45 µM
same,dH,LC3C (for ITC),-34.7 ± 0.837 kJ/mol
same,stoichiometry N,LC3C (for ITC),0.99 ± 0.02
B11,Ka,[1],20000 M⁻¹
same,Kd,[1],52 µM
same,dH,[1],-31.4 ± 0.418 kJ/mol
B12,binding result,6xHis‐tagged GABARAP‐L1,binds
same,binding result,6xHis‐tagged GABARAP‐L2,binds
same,binding result,6xHis‐tagged LC3A,binds
same,binding result,6xHis‐tagged LC3B,binds
same,binding result,6xHis‐tagged GABARAP,binds
same,binding result,6xHis‐tagged LC3C,binds
B13,Ka,LC3B K30R,190000 M⁻¹
same,Kd,LC3B K30R,5.26 µM
same,stoichiometry N,LC3B K30R,1.11 ± 0.02
same,Ka,GABARAP R28K,1.9e+06 M⁻¹
same,Kd,GABARAP R28K,0.54 µM
same,stoichiometry N,GABARAP R28K,1.05 ± 0.01
B14,binding result,6xHis-tagged GABARAP,binds

# Reference: PMC5538626 (EMBO Reports, 2017)
